Source: the supplement of paper PMC7125110
± gives the standard error. Variants at the floor of the assay were thinned out.

B1: glmS ribozyme (parent)
chain: AUAAAAGCGCCAGAACUACAGAAAUGUAGUUGACGAGGAGGAGGUUUAUCGAAUUUUCGGCGGAUGCCUCCAAA

Experiments:
Settings in all cases: with glucosamine-6-phosphate
glucosamine-6-phosphate [1] = variants of: B1; assay: self-cleavage kobs at 640 uM GlcN6P; higher = faster cleavage; RNA array
Outline: (§1)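 Barcoded ribozyme variants were transcribed in situ on sequenced MiSeq chips by E. coli RNA polymerase. At 37 °C, a hybridised Cy3 probe tracked them while glucosamine-6-phosphate (40 μM to 10 mM) in HEPES/KCl/Mg(OAc)2 buffer flowed in and tiles were imaged over ~14 h. Per-tile medians of signals normalised to baseline and to non-cleaving reference variants were fit to one- or two-exponential decays, giving kobs. kcat and KM came from weighted Michaelis–Menten fits across concentrations.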

glucosamine-6-phosphate [2] = variants of: B1; assay: self-cleavage kobs at 2500 uM GlcN6P; higher = faster cleavage; RNA array
Outline: as §1

glucosamine-6-phosphate [3] = variants of: B1; assay: self-cleavage kobs at 10000 uM GlcN6P; higher = faster cleavage; RNA array
Outline: as §1

Variant | self-cleavage kobs at 640 uM GlcN6P (glucosamine-6-phosphate [1]) | self-cleavage kobs at 2500 uM GlcN6P (glucosamine-6-phosphate [2]) | self-cleavage kobs at 10000 uM GlcN6P (glucosamine-6-phosphate [3])
C10U A36U C70A | 0.00107 ± 0.00039 s⁻¹ | – | –
G29U A33U U56A A64G | < 1e-05 s⁻¹ | – | –
C34A A53G U56C | < 1e-05 s⁻¹ | – | –
C8G C10U A14G C34A U69G | 0.000745 ± 0.00024 s⁻¹ | < 1e-05 s⁻¹ | –
A15G G51U G63U C68G | 9.97e-05 ± 4.5e-05 s⁻¹ | 0.000286 ± 0.00011 s⁻¹ | –
G7U U30A G51A | < 1e-05 s⁻¹ | – | –
G9C G40C U49G | < 1e-05 s⁻¹ | – | < 1e-05 s⁻¹
G35U A48C C68A | < 1e-05 s⁻¹ | – | –
G37U A39U G40U A48U C50G C67A | < 1e-05 s⁻¹ | < 1e-05 s⁻¹ | –
C58G G62A G63C C71A | 5.92e-05 ± 2.4e-05 s⁻¹ | – | –
G29C G43U A64U C68G | < 1e-05 s⁻¹ | – | –
C34U G51A U57G U69G | 0.000271 ± 9.8e-05 s⁻¹ | – | 0.000296 ± 7.8e-05 s⁻¹
C11U U31A C50G | 8.34e-05 ± 2.1e-05 s⁻¹ | 9.55e-05 ± 3.2e-05 s⁻¹ | –
A6U G51C U56A U69G C70A | 0.000269 ± 8e-05 s⁻¹ | – | –
U31A G32A G59U G62A | < 1e-05 s⁻¹ | – | –
A6C G35C U54A | < 1e-05 s⁻¹ | < 1e-05 s⁻¹ | < 1e-05 s⁻¹
C10A U56A C70U | 6.36e-05 ± 2.6e-05 s⁻¹ | 0.000147 ± 6.5e-05 s⁻¹ | –
C8U G35C C68U | < 1e-05 s⁻¹ | – | –
A12U G44C A48U C58G C67G C71U | < 1e-05 s⁻¹ | < 1e-05 s⁻¹ | –

Variant | self-cleavage kobs at 640 uM GlcN6P (glucosamine-6-phosphate [1]) | self-cleavage kobs at 2500 uM GlcN6P (glucosamine-6-phosphate [2]) | self-cleavage kobs at 10000 uM GlcN6P (glucosamine-6-phosphate [3])
A39U A48U U55C G59U | < 1e-05 s⁻¹ | < 1e-05 s⁻¹ | –
A33C A36U G37U C71U | < 1e-05 s⁻¹ | < 1e-05 s⁻¹ | –
A6U G35C A64C | < 1e-05 s⁻¹ | < 1e-05 s⁻¹ | –
U31C G37A G44U A48U C50A U65G | < 1e-05 s⁻¹ | – | –
U57C G62C C68G | < 1e-05 s⁻¹ | – | –
U49A C50G | < 1e-05 s⁻¹ | – | –
G7C G59C G66C | < 1e-05 s⁻¹ | – | < 1e-05 s⁻¹
G32U C58A C67A | 7.59e-05 ± 1.8e-05 s⁻¹ | 0.000241 ± 4.9e-05 s⁻¹ | –
G41A G51A C68G | < 1e-05 s⁻¹ | – | –
U30G A42G U45C C70A C71A | < 1e-05 s⁻¹ | – | –
C16A G41U | < 1e-05 s⁻¹ | – | –
A14G U45G C50G C68G | < 1e-05 s⁻¹ | – | –
G7C U30G A64G | < 1e-05 s⁻¹ | – | –
A14U C16A G29A | 8.7e-05 ± 2.4e-05 s⁻¹ | – | –
A48U C58A C61G | < 1e-05 s⁻¹ | – | –
A36C A42U A52G C70U | < 1e-05 s⁻¹ | – | –
G60A C61G C67G | < 1e-05 s⁻¹ | – | –
A14G G35A C71G | < 1e-05 s⁻¹ | – | –
